Laboratory results taken from patent US20220251595A1, “ENGINEERED ATRLP23 PATTERN RECOGNITION RECEPTORS AND METHODS OF USE” (priority 2019, published 2022).

Test system: corn protoplasts
Assay: Calcium burst in transiently transfected corn protoplasts, R-GECO1.2 fluorescence reporter
Type: cell-based, Zea mays
Conditions: Example 3, FIG. 4; 1 μM PpNLP20; 40 minutes; 384-well
Source text: Following ligand (also known as elicitor) binding, PRRs are activated and induce a transient increase of cytosolic Ca^2+ concentration as part of a PTI response. […] In a high-throughput method, the kinetics of PRR-dependent transient variation of cytosolic Ca^2+ concentration can be measured with a fluorimeter or luminometer and in microplate formats of 96 or 384 wells.
Fluorescence was monitored using a fluorimeter equipped with a 100 Hz xenon flash lamp with excitation at 556 nm and emission measured at 585 nm for 100 ms, every 22.6 seconds for 42 minutes.
All of the AtRLP23 constructs have an operably linked 2×35S+Ω promoter construct (SEQ ID NO: 72) and an operably linked rbcS terminator (SEQ ID NO: 73)
Fluorescence was monitored using a fluorimeter equipped with a 100 Hz xenon flash lamp with excitation at 556 nm and emission measured at 585 nm for 30 ms, every 20.2 seconds for 40 minutes. For each fluorescence measurement, the transient change in R-GECO1.2 fluorescence (ΔF) are calculated from background corrected intensity values as (F-Fo), where F represents the average fluorescence intensity of the a batch of protoplasts treated with elicitor, and Fo represents the average fluorescence intensity of the same batch of protoplasts treated with a control solution that lacks the elicitor but is otherwise identical or essentially identical in composition to the solution comprising the elicitor.

B1: AtRLP23+TM-AtBAK1-3×FLAG: AtRLP23 apoplastic, eJM and TM domains, AtBAK1 cytoplasmic domain, 3×FLAG; SEQ ID NO: 37, 38 (protein)
chain: MSKALLHLHFLSLFLLCCVCHSSIFTLNFHFTGIVACRPHQIQAFTKFTNEFDTRGCNNSDTFNGVWCDNSTGAVAVLQLRKCLSGTLKSNSSLFGFHQLRYVDLQNNNLTSSSLPSGFGNLKRLEGLFLSSNGFLGQVPSSFSNLTMLAQLDLSYNKLTGSFPLVRGLRKLIVLDLSYNHFSGTLNPNSSLFELHQLRYLNLAFNNFSSSLPSKFGNLHRLENLILSSNGFSGQVPSTISNLTRLTKLYLDQNKLTSSFPLVQNLTNLYELDLSYNKFFGVIPSSLLTLPFLAHLALRENNLAGSVEVSNSSTSSRLEIMYLGSNHFEGQILEPISKLINLKHLDLSFLNTSYPIDLKLFSSLKSLRSLDLSGNSISSASLSSDSYIPLTLEMLTLRHCDINEFPNILKTLKELVYIDISNNRMKGKIPEWLWSLPLLQSVTLGNNYFTGFQGSAEILVNSSVLLLYLDSNNFEGALPDLPLSIKGFGVASNSFTSEIPLSICNRSSLAAIDLSYNNFTGPIPPCLRNLELVYLRNNNLEGSIPDALCDGASLRTLDVSHNRLTGKLPRSFVNCSSLKFLSVINNRIEDTFPFWLKALPNLQVLTLRSNRFYGPISPPHQGPLGFPELRIFEISDNKFTGSLPPNYFVNWKASSRTMNQDGGLYMVYEEKLFDEGGYGYTDALDLQYKGLHMEQAKALTSYAAIDFSGNRLEGQIPESIGLLKALIAVNISNNAFTGHIPLSMANLENLESLDMSRNQLSGTIPNGLGSISFLAYINVSHNQLTGEIPQGTQITGQSKSSFEGNAGLCGLPLKESCFGTGAPPMYHQKQEDKEEEEEEEEEEEEVLNGRAVAIGYGSGLLLGLAIAQVIASYRRKKPQDHFFDVPAEEDPEVHLGQLKRFSLRELQVASDNFSNKNILGRGGFGKVYKGRLADGTLVAVKRLKEERTQGGELQFQTEVEMISMAVHRNLLRLRGFCMTPTERLLVYPYMANGSVASCLRERPESQPPLDWPKRQRIALGSARGLAYLHDHCDPKIIHRDVKAANILLDEEFEAVVGDFGLAKLMDYKDTHVTTAVRGTIGHIAPEYLSTGKSSEKTDVFGYGVMLLELITGQRAFDLARLANDDDVMLLDWVKGLLKEKKLEALVDVDLQGNYKDEEVEQLIQVALLCTQSSPMERPKMSEVVRMLEGDGLAERWEEWQKEEMFRQDFNYPTHHPAVSGWIIGDSTSQIENEYPSGPRSDYKDHDGDYKDHDLDAAAADYKDDDDK
modifications: Fusion protein
  responsiveness to PpNLP20 treatment compared to AtRLP23-3×FLAG (total transient increase of fluorescence): reduced responsiveness
